The record followed here is article PMC3105044, “The Membrane Bound LRR Lipoprotein Slr, and the Cell Wall-Anchored M1 Protein from Streptococcus pyogenes Both Interact with Type I Collagen” (PLoS ONE, 2011).

In experiment [1] the target is Collagen type I (UniProt P02452). Nature of the experiment: SPR; collagen I immobilised by amine coupling on a CM3 chip (about 1500 RU); Slr or M1 diluted 2-fold from 500 nM, 35 µl/min, in 10 mM HEPES, 150 mM NaCl, 0.005% Surfactant P20, pH 7.5; BIAcore 2000; 1:1 Langmuir fit. (In general: SPR reads the build-up and loss of mass on a sensor chip optically.)
Sequence of Collagen type I (UniProt P02452) (P02452 162-1218, chain 1 of 2): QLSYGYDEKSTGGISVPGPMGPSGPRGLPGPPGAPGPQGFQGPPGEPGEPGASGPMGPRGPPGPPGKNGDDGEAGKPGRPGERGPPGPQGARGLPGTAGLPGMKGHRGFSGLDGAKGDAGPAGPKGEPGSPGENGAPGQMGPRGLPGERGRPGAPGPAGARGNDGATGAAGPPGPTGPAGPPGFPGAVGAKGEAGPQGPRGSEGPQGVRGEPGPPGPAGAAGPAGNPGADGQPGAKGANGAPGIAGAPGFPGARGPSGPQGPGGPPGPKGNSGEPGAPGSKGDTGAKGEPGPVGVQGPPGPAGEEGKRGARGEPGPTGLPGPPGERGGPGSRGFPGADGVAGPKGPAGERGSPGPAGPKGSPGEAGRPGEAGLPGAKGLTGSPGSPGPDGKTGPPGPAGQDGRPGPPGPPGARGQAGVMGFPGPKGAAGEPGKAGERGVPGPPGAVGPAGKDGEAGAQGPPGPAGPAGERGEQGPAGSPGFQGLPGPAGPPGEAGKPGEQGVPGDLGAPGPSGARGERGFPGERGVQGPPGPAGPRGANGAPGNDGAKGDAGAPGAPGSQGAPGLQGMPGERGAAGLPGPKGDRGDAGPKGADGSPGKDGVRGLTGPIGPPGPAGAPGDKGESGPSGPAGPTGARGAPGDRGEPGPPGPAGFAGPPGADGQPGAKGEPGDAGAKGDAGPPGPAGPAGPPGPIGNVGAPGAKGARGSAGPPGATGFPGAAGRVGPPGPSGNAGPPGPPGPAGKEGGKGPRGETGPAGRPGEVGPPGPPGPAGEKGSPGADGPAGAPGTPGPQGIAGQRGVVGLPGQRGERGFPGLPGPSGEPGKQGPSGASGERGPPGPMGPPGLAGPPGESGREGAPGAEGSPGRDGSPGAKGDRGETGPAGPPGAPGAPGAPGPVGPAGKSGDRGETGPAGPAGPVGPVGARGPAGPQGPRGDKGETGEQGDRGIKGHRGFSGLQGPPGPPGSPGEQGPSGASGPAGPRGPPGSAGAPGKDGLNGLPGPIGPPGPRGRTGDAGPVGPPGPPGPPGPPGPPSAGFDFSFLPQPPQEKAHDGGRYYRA
Sequence of Collagen type I (UniProt P02452) (P08123 80-1119, chain 2 of 2, further chain): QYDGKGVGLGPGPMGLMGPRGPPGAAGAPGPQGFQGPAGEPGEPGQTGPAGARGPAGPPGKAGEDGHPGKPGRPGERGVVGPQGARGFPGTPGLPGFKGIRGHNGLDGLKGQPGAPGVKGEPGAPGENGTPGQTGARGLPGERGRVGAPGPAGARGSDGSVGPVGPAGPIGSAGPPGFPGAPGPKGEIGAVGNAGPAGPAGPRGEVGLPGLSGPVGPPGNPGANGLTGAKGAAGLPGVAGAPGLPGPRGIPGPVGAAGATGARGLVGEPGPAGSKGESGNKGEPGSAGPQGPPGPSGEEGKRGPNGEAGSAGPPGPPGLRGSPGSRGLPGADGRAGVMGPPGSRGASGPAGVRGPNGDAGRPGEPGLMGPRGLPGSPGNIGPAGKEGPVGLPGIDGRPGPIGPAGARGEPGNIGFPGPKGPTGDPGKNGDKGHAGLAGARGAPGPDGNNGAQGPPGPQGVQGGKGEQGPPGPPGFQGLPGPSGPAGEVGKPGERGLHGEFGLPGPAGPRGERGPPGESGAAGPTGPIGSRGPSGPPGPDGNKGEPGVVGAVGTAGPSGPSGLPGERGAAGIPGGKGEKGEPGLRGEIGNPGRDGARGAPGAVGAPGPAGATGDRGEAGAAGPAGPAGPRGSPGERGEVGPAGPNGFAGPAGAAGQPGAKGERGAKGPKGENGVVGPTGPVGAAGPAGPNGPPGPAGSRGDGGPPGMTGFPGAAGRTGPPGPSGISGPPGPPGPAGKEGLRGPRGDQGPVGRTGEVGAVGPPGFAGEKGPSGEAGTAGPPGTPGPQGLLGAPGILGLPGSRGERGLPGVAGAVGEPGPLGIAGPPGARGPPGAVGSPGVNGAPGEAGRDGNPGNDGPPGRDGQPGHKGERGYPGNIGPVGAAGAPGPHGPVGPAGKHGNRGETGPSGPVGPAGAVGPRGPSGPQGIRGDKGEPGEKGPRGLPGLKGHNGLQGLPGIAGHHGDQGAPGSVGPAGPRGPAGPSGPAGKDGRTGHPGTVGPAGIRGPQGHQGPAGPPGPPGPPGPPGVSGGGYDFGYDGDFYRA
Experiment [2] addresses T1, Collagen type I (UniProt P02452 162-1218; P08123 80-1119).
T1 construct: collagen I alpha1 chain (printed as the α1 chain, 134 kDa); collagen I alpha2 chain (printed as the α2 chain, 130 kDa); Used non-denatured, denatured with 4 M guanidine hydrochloride, monomeric and fibrillar; also called collagen I; monomeric collagen I; source: bought: Sigma
The description is as above. The note with it: both partners purified.

T1 sequence (P02452 162-1218, chain 1 of 2): as the sequence (P02452 162-1218, chain 1 of 2) above
T1 sequence (P08123 80-1119, chain 2 of 2): as the sequence (P08123 80-1119, chain 2 of 2, further chain) above

In general, Kd refers to the free concentration of one partner at which half of the binding sites on the other are occupied at equilibrium, for simple one-to-one binding. High values mean weaker binding, low ones tighter binding. “streptococcal leucine rich (Slr) protein, recombinant, GST tag removed (from UniProt F8THZ1 1-792) (natural protein)” showed a Kd with Collagen type I [1] of 12 nM.

B1: M1 protein from Streptococcus pyogenes, purified from culture supernatants of strain MC25 (natural protein)
chain: NGDGNPREVIEDLAANNPAIQNIRLRYENKDLKARLENAMEVAGRDFKRAEELEKAKQALEDQRKDLETKLKELQQDYDLAKESTSWDRQRLEKELEEKKEALELAIDQASRDYHRATALEKELEEKKKALELAIDQASQDYNRANVLEKELETITREQEINRNLLGNAKLELDQLSSEKEQLTIEKAKLEEEKQISDASRQSLRRDLDASREAKKQVEKDLANLTAELDKVKEDKQISDASRQGLRRDLDASREAKKQVEKDLANLTAELDKVKEEKQISDASRQGLRRDLDASREAKKQVEKALEEANSKLAALEKLNKELEESKKLTEKEKAELQAKLEAEAKALKEQLAKQAEELAKLRAGKASDSQTPDTKPGNKAVPGKGQAPQAGTKPNQNKAPMKETKRQLPST
B1 displayed a Kd in the experiment with Collagen type I [2] of 54 nM.
